Laboratory results taken from patent publication US20150368299A1 (published 2015).

T1: Aβ(12-42) globulomer (human)
T1 construct: Non-covalent oligomer; the subunit number was not measured
T1 peptide: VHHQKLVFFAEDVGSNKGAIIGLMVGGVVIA


What was measured:
Assay in all cases: dot blot with densitometry; Aβ form dotted on nitrocellulose in serial dilution, antibody 0.2 µg/ml; higher value = weaker recognition
Aβ(12-42) globulomer = biological target: T1, Aβ(12-42) globulomer
Experimental: (§1) The dot blot was developed with 10 ml BM Blue POD Substrate for 10 min. The development was stopped by intense washing of the dot blot with H₂O. Quantitative evaluation was done based on a densitometric analysis (GS800 densitometer (BioRad) and software package Quantity one, Version 4.5.0 (BioRad)) of the dot intensity. […] This threshold value was determined for every dot blot independently. The calculated value indicates the relation between recognition of Aβ(20-42) globulomer and the respective Aβ form for the given antibody.
(§2) The individual Aβ forms were applied in serial dilutions and incubated with the respective antibodies for immune reaction (1=Aβ(1-42) monomer, 0.1% NH₄OH; 2=Aβ(1-40) monomer, 0.1% NH₄OH; 3=Aβ(1-42) monomer, 0.1% NaOH; 4=Aβ(1-40) monomer, 0.1% NaOH; 5=Aβ(1-42) globulomer; 6=Aβ(12-42) globulomer; 7=Aβ(20-42) globulomer; 8=Aβ(1-42) fibril preparation; 9=sAPPα (Sigma); (first dot: 1 pmol)).

Aβ(1-42) globulomer = biological target: T2, Aβ(1-42) globulomer (human, UniProt P05067 672-713)
T2 construct: the number was not measured for this preparation; also called 38/48-kDa Aβ(1-42) globulomer; Aβ(1-42) globular oligomer
Experimental: as §1, §2

[1] = biological target: T3, Aβ(1-42) monomer in 0.1% NaOH (human)
T3 construct: also called Aβ(1-42) monomer, 0.1% NaOH
Experimental: as §1, §2

Aβ(1-42) fibril = biological target: T4, Aβ(1-42) fibril (human, UniProt P05067 672-713)
T4 construct: also called Aβ(1-42) fibrils; Aβ(1-42) fibril preparation
Experimental: as §1, §2

[2] = biological target: T5, Aβ(1-42) monomer in 0.1% NH4OH (human)
T5 construct: The range counts on the Aβ peptide; also called Aβ(1-42) monomer, 0.1% NH4OH
Experimental: as §1, §2

[3] = biological target: T6, Aβ(1-40) monomer in 0.1% NH4OH (human)
T6 construct: The range counts on the Aβ peptide; also called Aβ(1-40) monomer, 0.1% NH4OH
T6 sequence (peptide, as listed by the source): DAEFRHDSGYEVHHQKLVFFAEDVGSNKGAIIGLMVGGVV
Experimental: as §1, §2

Row | dot blot relation of recognition of Aβ(20-42) globulomer to recognition of this Aβ form (Aβ(12-42) globulomer) | dot blot relation of recognition of Aβ(20-42) globulomer to recognition of this Aβ form (Aβ(1-42) globulomer) | dot blot relation of recognition of Aβ(20-42) globulomer to recognition of this Aβ form [1] | dot blot relation of recognition of Aβ(20-42) globulomer to recognition of this Aβ form (Aβ(1-42) fibril) | dot blot relation of recognition of Aβ(20-42) globulomer to recognition of this Aβ form [2] | dot blot relation of recognition of Aβ(20-42) globulomer to recognition of this Aβ form [3] | Binder
1 | 41000 | 57000 | – | – | – | – | murine monoclonal anti-Aβ(20-42) globulomer antibody m10B3 (antibody, V domains shown, Murine hybridoma antibody from mice immunized with Aβ(20-42) globulomer; also called mAb 10B3; Anti-Aβ monoclonal antibody clone m10B3) VH: EVKLVESGGGLVQPGGSRKLSCAASGFTFSDYEMVWVRQAPGEGLEWVAYISSGSRTIHYADTVKGRFTISRDNPKNTLFLQMSSLRSEDTAMYYCARTLLRLHFDYWGQGTILTVSS VL: not shown
2 | 60000 | 30000 | 39500 | 32600 | 36000 | 27300 | murine monoclonal anti-Aβ(20-42) globulomer antibody m4C9 (antibody, V domains shown, Murine hybridoma antibody from mice immunized with Aβ(20-42) globulomer; also called mAb 4C9; Anti-Aβ monoclonal antibody clone m4C9) VH: QVQLQQPGAELVKPGASVKLSCKAPGYTFTSYWMHWVKQRPGQGLEWIGRIDPKSGDTKYTEKFKSKATLTVDKPSSTAYMQLSSLTSEDSAVYYCTTMSKLSGTHAWFAYWGQGTLVTVSA VL: DIKMTQSPSSMYASLGERVTITCKASQDINSYLTWFQQKPGKSPKTLIYRANRLVDGVPSRFSGSGSGQDYSLTISSLEYEDMGIYYCLQYDEFPLTFGAGTKLELK
3 | 6 | – | – | – | – | – | Anti-Aβ monoclonal antibody clone 6E10 (Covance cat. no. SIG-39320) (antibody, V domains shown) VH: EVQLQQSGAELVKPGASVKLCTASGFNIKDTYIHWVKQRPEQGLEWIGRFDPVNVNTRYDSRFRGKATITSDASSNTAYLHLNSLTSEDTAVYYCSRSYYNGRRRFTYWGQGTLVTVSA VL: DIVMTQSPSSLTVTAGEKVALTCKASQSLLSSGNQKNYLTWYQQKPGQPPKLLIYWASIRESGVPDRFTGSGSGTFFTLTISSVQAEDLAVYYCQNDYNYPFTFGSGTKLEIK
